# In IntAct's records for PubMed 20696397:
# B1: E3 ubiquitin-protein ligase RING2 (Homo sapiens), Q99496 (parent)
# chain: MSQAVQTNGTQPLSKTWELSLYELQRTPQEAITDGLEIVVSPRSLHSELMCPICLDMLKNTMTTKECLHRFCADCIITALRSGNKECPTCRKKLVSKRSLRPDPNFDALISKIYPSRDEYEAHQERVLARINKHNNQQALSHSIEEGLKIQAMNRLQRGKKQQIENGSGAEDNGDSSHCSNASTHSNQEAGPSNKRTKTSDDSGLELDNNNAAMAIDPVMDGASEIELVFRPHPTLMEKDDSAQTRYIKTSGNATVDHLSKYLAVRLALEELRSKGESNQMNLDTASEKQYTIYIATASGQFTVLNGSFSLELVSEKYWKVNKPMELYYAPTKEHK
# partner: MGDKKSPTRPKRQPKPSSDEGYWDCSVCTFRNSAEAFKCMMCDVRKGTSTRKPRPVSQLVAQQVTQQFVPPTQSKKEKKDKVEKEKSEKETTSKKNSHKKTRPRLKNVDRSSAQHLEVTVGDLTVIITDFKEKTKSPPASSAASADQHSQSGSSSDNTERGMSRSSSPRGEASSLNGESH
# B2: Chromobox protein homolog 7 (Homo sapiens), O95931 (parent)
# chain: MELSAIGEQVFAVESIRKKRVRKGKVEYLVKWKGWPPKYSTWEPEEHILDPRLVMAYEEKEERDRASGYRKRGPKPKRLLLQRLYSMDLRSSHKAKGKEKLCFSLTCPLGSGSPEGVVKAGAPELVDKGPLVPTLPFPLRKPRKAHKYLRLSRKKFPPRGPNLESHSHRRELFLQEPPAPDVLQAAGEWEPAAQPPEEEADADLAEGPPPWTPALPSSEVTVTDITANSITVTFREAQAAEGFFRDRSGKF
# Variants of: B1
# Settings: with YAF2, Q8IY57-1
row,effect of a mutation on the interaction,Variant
1,disrupting interaction,Y262A
2,disrupting interaction,H258A

# Variants of: B2
# Settings: with ring2_human RNF2, Q99496
row,effect of a mutation on the interaction,Variant
1,disrupting interaction,F234D
